Measurements from patent US10202593B2, “Evolved sortases and uses thereof” (President and Fellows of Harvard College, priority 2013, dated 2019).
Substitutions are numbered along the chain they refer to. Numbers in names are those of the source.

Biological target: T1, fetuin A in human plasma (Homo sapiens, UniProt P02765)
T1 construct: site-specific modification of endogenous fetuin A in human plasma; tissue VWR 89347-902; host or cells: normal human plasma
T1 sequence (P02765 19-367): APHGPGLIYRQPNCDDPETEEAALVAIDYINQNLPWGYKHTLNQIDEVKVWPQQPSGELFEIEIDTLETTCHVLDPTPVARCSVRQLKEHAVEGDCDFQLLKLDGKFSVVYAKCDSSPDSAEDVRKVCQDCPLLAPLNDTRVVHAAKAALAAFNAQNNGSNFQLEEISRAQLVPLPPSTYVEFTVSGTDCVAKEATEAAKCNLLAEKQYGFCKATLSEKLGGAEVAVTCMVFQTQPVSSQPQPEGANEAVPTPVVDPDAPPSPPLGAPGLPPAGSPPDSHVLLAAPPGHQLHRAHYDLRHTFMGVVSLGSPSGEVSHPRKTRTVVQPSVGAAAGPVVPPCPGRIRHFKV
Assay: Plasma labeling of fetuin A with GGGK(biotin)
Type: biochemical
Settings: for overall conjugation efficiency in human plasma (fetuin A, densitometry): 2 hours, room temperature
Method: FIG. 21A-D show applications of evolved sortases. (A) N- and C-terminal labeling of fibroblast growth factors FGF1 and FGF2. Tandem SUMO-TEV cleavage site-FGF1/2-LPESG-His6 (SEQ ID NO: 27) constructs were treated with eSrtA(4S-9) in the presence of GGG-PEG, then with eSrtA(2A-9) and TEV protease in the presence of Alexa Fluor750-LAETGG (SEQ ID NO: 35) and purified to afford the final conjugates in up to 20% yield (Table 3). The crude reactions were analyzed by SDS-PAGE and scanned for fluorescence at 700 nm. (B) Surface functionalization using eSrtA(2A-9) and eSrtA(4S-9). 96-well plates coated with GGG-PEG (5 kDa) were incubated with enzyme and Alexa Flur 488-LAETG (SEQ ID NO: 5; green) or Alexa Fluor 647-LPESG (SEQ ID NO: 3; red) for 2 hours, then washed three times. The total fluorescence of the resulting surfaces was measured at 488 nm or 647 nm, then normalized to the fluorescent intensities obtained from the samples containing eSrtA(2A-9)+488-LAETG (SEQ ID NO: 5) or eSrt(4S-9)+647-LPESG (SEQ ID NO: 3). (C, D) Treatment of human plasma with evolved SrtA variants for 2 hours at room temperature in the presence of GGGK(biotin) (SEQ ID NO: 22) with or without 10 mM CaCl2. […] Biotin capture and mass spectrometry identified this protein as fetuin A, confirmed by subsequent Western blot (D).
Normal human plasma was purchased from VWR (part number 89347-902) and stored at −20° C. For all reactions, an aliquot was thawed at 37° C. for 15 minutes, then vortexed to resuspend any coagulated material. To this sample was added 2 μL of 0.1 M GGGK(biotin) (SEQ ID NO: 22) for analytical reactions. Higher concentrations of GGGK(biotin) (SEQ ID NO: 22) were avoided for analytical purposes, as they caused increased background in downstream Western blotting. 10 μL of 1 M CaCl2 was added in cases of calcium supplementation. Reactions were initiated by the addition of 10 μL of 100 μM eSrtA, eSrtA(2A-9), or eSrtA(4S-9) and incubated at room temperature for 2 hours. Reactions were quenched by 10:1 dilution into SDS-PAGE loading buffer, followed by a 10 minute incubation at 95° C. These samples were then run on 4-12% Bis-Tris PAGE gels, blotted to PVDF membrane using the iBlot2 dry blotting system, blocked with Pierce Superblock buffer for 1 hour followed by incubation with 1:500 dilutions of Abcam α-Fetuin A antibody (MM0273-6M23) in Superblock buffer with 0.1% Tween-20 for 1 hour. The blot was then washed 3 times with PBS+0.1% Tween-20, then incubated again in 1:15,000 LiCor goat antimouse 680+1:15,000 Licor Streptavidin-800 in Superblock buffer with 0.1% Tween and 0.01% SDS added for 45 minutes. The blot was then washed 3 times with PBS+0.1% Tween and visualized on an Odyssey IR imager.
As in analytical labeling of Fetuin A, 1 mL of normal human plasma was combined with 10 μL 1M CaCl2, 10 μL of 0.1M GGGK(Biotin) (SEQ ID NO: 22), and 10 μL of 100 μM eSrtA(4S-9), then incubated at room temperature for 2 hours. 100 μL of pre-equilibrated Ni-NTA resin slurry and 12.5 μL 0.4M H2N-LPESGG (SEQ ID NO: 38) peptide was added to the mixture to act as a competitive inhibitor for thioester formation. The mixture was incubated at room temperature with shaking for 15 minutes, then filtered through a 0.2 μm spin filter before dilution to 10 mL final volume in PBS+1 mM EDTA+100 μM H2N-LPESGG (SEQ ID NO: 38) (PBS-EL). The solution was concentrated using a 10 kDa molecular weight cutoff spin concentrator for 20 minutes at 3500×g and a final volume of <1 mL. […]

[1] = presence of supplemental calcium (10 mM CaCl2)

B1: eSrtA (protein)
chain: QAKPQIPKDKSKVAGYIEIPDADIKEPVYPGPATREQLNRGVSFAEENESLDDQNISIAGHTFIDRPNYQFTNLKAAKKGSMVYFKVGNETRKYKMTSIRNVKPTAVEVLDEQKGKDKQLTLITCDDYNEETGVWETRKIFVATEVK
10 mM added CaCl2
  fetuin A conjugation efficiency lower than that of eSrtA(4S-9): 90 fold
[1]
  overall conjugation efficiency in human plasma (fetuin A, densitometry): 0.6%
Without supplemental calcium
  processing of fetuin A: no processing

B2: eSrtA(4S-9): P94R, N98D, S102C, A104V, A118T, F122A, K134R, F144L, D160N, D165A, I182V, E189F, K190E, K196T (protein)
chain: B1 chain with N39D, S43C, A45V, A59T, F63A, K75R, F85L, I123V, E130F
Absence of supplemental calcium
  overall conjugation efficiency in human plasma (fetuin A, densitometry): 1.8%
[1]
  overall conjugation efficiency in human plasma (fetuin A, densitometry): 57.6%
